Measurements as given in publication PMC8930771, “Structural basis of phosphatidylinositol 3-kinase C2α function” (Nature Structural & Molecular Biology, 2022).

What was measured:
[1] = biological target: T1, PI3KC2α^ΔN+ΔPX−C2 RBD mutant (K426A, W458A, D461A, D462A) (mouse, UniProt Q61194 377-1400, K426A | W458A | D461A | D462A); experiment: pull-down; 10 μg immobilized GST fusion protein as bait, 200 μg PI3KC2α^ΔN+ΔPX−C2 WT or RBD mutant in 500 μl binding buffer (20 mM Tris, pH 7.5, 100 mM NaCl), 1 h at 4 °C, three washes; SDS-PAGE and Coomassie blue staining, quantified with ImageJ; settings: both partners purified
T1 construct: Phosphatidylinositol 3-kinase type 2α (PI3KC2α), mouse, amino acids 377-1,400, with four alanine substitutions in the RBD; source: Sf21 insect cells (baculovirus), purified (Nickel NTA, TEV cleavage, Superdex 200)
T1 sequence (looked up): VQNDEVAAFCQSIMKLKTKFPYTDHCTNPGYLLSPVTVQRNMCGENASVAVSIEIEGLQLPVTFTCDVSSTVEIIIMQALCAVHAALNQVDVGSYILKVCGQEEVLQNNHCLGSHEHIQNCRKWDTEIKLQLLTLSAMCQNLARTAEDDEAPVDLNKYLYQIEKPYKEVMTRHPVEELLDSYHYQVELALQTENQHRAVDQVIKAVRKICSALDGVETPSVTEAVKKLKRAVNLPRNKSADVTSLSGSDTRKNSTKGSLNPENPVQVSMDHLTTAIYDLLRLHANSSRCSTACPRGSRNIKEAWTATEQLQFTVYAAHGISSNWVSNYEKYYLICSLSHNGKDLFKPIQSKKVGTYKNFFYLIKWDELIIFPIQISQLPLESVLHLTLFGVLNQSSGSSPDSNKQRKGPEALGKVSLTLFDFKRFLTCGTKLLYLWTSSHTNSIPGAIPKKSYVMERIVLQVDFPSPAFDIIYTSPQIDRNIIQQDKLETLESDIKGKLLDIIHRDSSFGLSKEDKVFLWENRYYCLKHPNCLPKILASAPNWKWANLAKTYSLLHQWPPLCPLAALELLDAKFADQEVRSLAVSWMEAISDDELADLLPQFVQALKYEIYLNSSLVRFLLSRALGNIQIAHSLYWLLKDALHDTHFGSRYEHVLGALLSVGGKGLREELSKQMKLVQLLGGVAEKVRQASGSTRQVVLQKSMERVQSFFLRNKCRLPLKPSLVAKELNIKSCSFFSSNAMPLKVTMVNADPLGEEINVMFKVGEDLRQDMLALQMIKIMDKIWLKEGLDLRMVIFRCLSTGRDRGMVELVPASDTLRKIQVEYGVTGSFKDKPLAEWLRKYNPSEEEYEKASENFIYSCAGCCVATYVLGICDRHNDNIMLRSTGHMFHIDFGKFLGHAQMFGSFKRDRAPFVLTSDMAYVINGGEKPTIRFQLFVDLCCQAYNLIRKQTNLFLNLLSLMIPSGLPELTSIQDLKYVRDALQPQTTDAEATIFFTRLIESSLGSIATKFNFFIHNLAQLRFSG

[2] = biological target: T2, PI3KC2α^ΔN+ΔPX−C2 WT (mouse PI3KC2α amino acids 377–1,400) (mouse, UniProt Q61194 377-1400); experiment: as above; settings: both partners purified
T2 construct: Phosphatidylinositol 3-kinase type 2α (PI3KC2α), mouse, amino acids 377-1,400; lacks the disordered N-terminal region and the distal PX and C-C2 domains; Cloned into pFL10His; The purification paragraph names PI3KC2α^ΔN, ^ΔN+ΔC−C2, ^core 'and related mutants'; also called PI3KC2α^ΔN+ΔPX−C2 Wild-type (WT); source: Sf21 insect cells (baculovirus), purified (Nickel NTA, TEV cleavage, Superdex 200)
T2 sequence (looked up): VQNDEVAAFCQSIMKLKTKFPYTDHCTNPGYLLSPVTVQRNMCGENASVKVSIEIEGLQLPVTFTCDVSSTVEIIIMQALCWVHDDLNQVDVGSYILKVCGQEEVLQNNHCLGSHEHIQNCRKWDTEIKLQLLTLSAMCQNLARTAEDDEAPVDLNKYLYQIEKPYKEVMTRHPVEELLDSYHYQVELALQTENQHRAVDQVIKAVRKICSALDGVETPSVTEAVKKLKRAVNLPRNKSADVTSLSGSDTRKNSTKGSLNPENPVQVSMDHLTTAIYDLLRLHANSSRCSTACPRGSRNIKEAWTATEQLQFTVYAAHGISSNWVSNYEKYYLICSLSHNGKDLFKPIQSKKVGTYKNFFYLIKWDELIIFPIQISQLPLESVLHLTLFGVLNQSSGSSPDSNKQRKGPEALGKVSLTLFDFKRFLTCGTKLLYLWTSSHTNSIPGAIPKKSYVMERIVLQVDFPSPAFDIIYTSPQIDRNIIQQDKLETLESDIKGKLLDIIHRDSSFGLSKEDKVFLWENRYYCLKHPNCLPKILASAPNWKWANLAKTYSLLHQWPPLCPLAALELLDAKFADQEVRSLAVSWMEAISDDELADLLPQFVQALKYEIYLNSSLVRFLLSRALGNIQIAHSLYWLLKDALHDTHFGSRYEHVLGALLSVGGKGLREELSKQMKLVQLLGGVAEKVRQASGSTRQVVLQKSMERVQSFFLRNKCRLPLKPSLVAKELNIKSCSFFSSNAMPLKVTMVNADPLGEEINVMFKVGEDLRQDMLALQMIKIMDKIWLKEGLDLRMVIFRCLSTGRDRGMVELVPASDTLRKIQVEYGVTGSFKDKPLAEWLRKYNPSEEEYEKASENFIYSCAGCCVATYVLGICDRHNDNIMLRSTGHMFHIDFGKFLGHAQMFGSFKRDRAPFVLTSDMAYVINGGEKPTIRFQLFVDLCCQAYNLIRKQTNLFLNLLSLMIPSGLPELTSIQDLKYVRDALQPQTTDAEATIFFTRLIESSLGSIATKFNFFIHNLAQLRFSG

B1: GST-distal C2 (PI3KC2α amino acids 1,561–1,686) (domain or fragment, mouse, UniProt Q61194 1561-1686, looked up)
chain: GAVKLSVSYRNGTLFIMVMHIKDLVTEDGADPNPYVKTYLLPDTHKTSKRKTKISRKTRNPTFNEMLVYSGYSKETLRQRELQLSVLSAESLRENFFLGGITLPLKDFNLSKETVKWYQLTAATYL
notes: PI3KC2α, mouse, C-terminal (distal) C2 domain, amino acids 1,561-1,686; also called GST-C2; GST-tagged C2; source: E. coli (pGEX-4T-1), immobilized GST fusion protein
Q: What does the source list for B1?
A: binding result [1]: binds; binding result [2]: binds
